In the RNAGym collection of RNA variant scans (doi:10.7554/elife.80360) one finds self-cleavage data, which are given here for 167 variants.

B1: HDV Ribozyme (parent)
chain: GGCCGGCAUGGUCCCAGCCUCCUCGCUGGCGCCGGCUGGGCAACAUUCCGAGGGGACCGUCCCCUCGGUAAUGGCGAAUGGGACCCA

The data set covers variants of B1. The data set is described as follows: self-cleavage, relative activity (ratio to wild type); higher = more cleavage; co-transcriptional.
With G31U C64A, the self-cleavage worked out at 0.364.
With G31C A78C, the self-cleavage was 0.0997.
Consider C32A U60A, for which the self-cleavage is 0.252.
Regarding C32A U60C, the self-cleavage worked out at 0.213.
C30G C84G: the self-cleavage turned out to be 0.0755.
Take C30G C84U: the self-cleavage was 0.0268.
G31C C57U: the self-cleavage was found to be 0.445.
Next, C30U C85U: 0.787; C30A A87G: 0.614.
Next, C30A A87U: 0.537.
As to G29U C84A, the self-cleavage turned out to be 0.117.
Next, C30U U79C: 0.148.
Take C30A A71U: the self-cleavage came out at 0.386.
C30G U72G: the self-cleavage was determined as 0.0923.
Next, G31C C48A: 0.449.
Consider C30G A70U, for which the self-cleavage came out at 0.0468.
Next, G31C C44A: 0; G31C G67A: 0.402; C30A C32G: 0.101.
With C32A G54U, the self-cleavage came to 0.102.
As for G31U A43G, the self-cleavage amounted to 0.0475.
For G29U G54C, the self-cleavage came out at 0.0282.
In the case of G29U G54A, the self-cleavage was 0.189.
As for C32A C84A, the self-cleavage was found to be 0.
As for G31C C49A, the self-cleavage was 0.415.
Regarding G31C G82C, the self-cleavage turned out to be 0.134.
Consider G31U G50C, for which the self-cleavage is 0.237.
Next, G31A G76C: 0.469.
Next, G31C A71U: 0.172.
Consider G31C A71C, for which the self-cleavage is 0.0475.
Next, G31C A71G: 0.253; C32A C49A: 0.415; G29U A87C: 0.0349.
As for G29U A87G, the self-cleavage was found to be 0.0585.
C30U A70G: the self-cleavage came to 0.8.
Regarding C30U G73U, the self-cleavage is 0.153.
Consider G31A C63A, for which the self-cleavage was 0.379.
Next, G31A C63G: 0.365; C30G G82A: 0.0941.
As for C30U C58G, the self-cleavage is 0.569.
Next, C30U C58A: 0.697; C32A A83C: 0.0665; G31U C36U: 0.0702.
In the case of G29U U72G, the self-cleavage turned out to be 0.
Regarding G29U G40U, the self-cleavage turned out to be 0.0923.
Next, G31C A42G: 0.0755; C30G G74C: 0.108; C30G G74U: 0.128.
Next, C30U G38A: 0.0773.
Consider C30G U60A, for which the self-cleavage was 0.154.
G31U C32A: the self-cleavage came out at 0.111.
As for G31C C36A, the self-cleavage came to 0.0277.
For G31C C36G, the self-cleavage amounted to 0.
G31U U46A: the self-cleavage came out at 0.0755.
Regarding G31U U46G, the self-cleavage amounted to 0.38.
Turning to G31U C44G, the self-cleavage was determined as 0.0665.
For the variant G31U A71G, the self-cleavage worked out at 0.271.
Take G31U A71C: the self-cleavage is 0.0369.
Next, C30U C44A: 0.117.
For the variant C30U C44G, the self-cleavage was 0.135.
Consider C30U C44U, for which the self-cleavage amounted to 0.289.
In the case of C32G A43G, the self-cleavage came to 0.0489.
Regarding G31U A70G, the self-cleavage worked out at 0.48.
Turning to G31U G53C, the self-cleavage was 0.563.
C30U G81A: the self-cleavage turned out to be 0.155.
Consider G29U G73U, for which the self-cleavage is 0.095.
Next, G29U G73C: 0.185; C30G U69G: 0; G31C G34C: 0.0396.
Turning to G31A C64G, the self-cleavage came to 0.408.
Next, G31A C64U: 0.409.
Next, G31A C48U: 0.393; G31A C48G: 0.456; C30G A83U: 0.16.
Regarding C30G A83G, the self-cleavage amounted to 0.
In the case of G31U C75U, the self-cleavage amounted to 0.0665.
In the case of G31U C75G, the self-cleavage was 0.148.
On to C30A A42G, for which the self-cleavage worked out at 0.
For the variant C30G G76A, the self-cleavage turned out to be 0.0554.
As for C30G G76C, the self-cleavage was 0.117.
For the variant C30A C49A, the self-cleavage was found to be 0.405.
As for G31U U69A, the self-cleavage worked out at 0.511.
Next, G31C G81C: 0.194; G31C G52U: 0.391; G31C G52A: 0.234.
For the variant G29U C63U, the self-cleavage was found to be 0.
Next, C30A C58A: 0.623.
As to C30A C58U, the self-cleavage worked out at 0.318.
Consider G31A C58G, for which the self-cleavage was determined as 0.393.
As to G31A C58A, the self-cleavage stood at 0.574.
As for G31C G68A, the self-cleavage is 0.372.
Take C30G C32G: the self-cleavage is 0.0627.
C30G C32U: the self-cleavage is 0.113.
For the variant G29U G80C, the self-cleavage is 0.0504.
For G29U G80U, the self-cleavage stood at 0.0885.
With G31C C84G, the self-cleavage is 0.193.
In the case of G29U U47G, the self-cleavage was 0.
Consider G31C U79A, for which the self-cleavage is 0.17.
Consider C32A G38U, for which the self-cleavage is 0.181.
C32A G53A: the self-cleavage stood at 0.234.
Take G31C G50C: the self-cleavage was found to be 0.511.
Next, G29U C61G: 0.203; C30U C32U: 0.7; C32A U46C: 0.128.
C32A U46G: the self-cleavage was 0.138.
Consider C30U G68U, for which the self-cleavage turned out to be 0.594.
For C30G C86G, the self-cleavage amounted to 0.0536.
For G31U U47G, the self-cleavage worked out at 0.32.
Next, G31A A56C: 0.445; C30G G54U: 0.148; C30G G54C: 0.095.
As to C30G G55U, the self-cleavage came to 0.0225.
For the variant C30G G55A, the self-cleavage worked out at 0.0852.
For C30G C48A, the self-cleavage came to 0.0369.
Take G31A C57A: the self-cleavage was found to be 0.708.
Take G31A C57G: the self-cleavage is 0.529.
Next, C30A G39U: 0.185; C30A G55U: 0.458.
Take C32A G82C: the self-cleavage worked out at 0.0396.
On to C30U C75G, for which the self-cleavage was determined as 0.0554.
For G31U U79C, the self-cleavage was 0.107.
Regarding G29U C57U, the self-cleavage turned out to be 0.0911.
On to C30U G54U, for which the self-cleavage came to 0.597.
Next, C30A G50C: 0.577; C32A A56U: 0.369.
Next, C30A U60A: 0.692.
With C30G U79G, the self-cleavage was found to be 0.128.
C30A G38U: the self-cleavage stood at 0.107.
As for C32A C86G, the self-cleavage came out at 0.243.
On to C30G U46A, for which the self-cleavage came to 0.0906.
Next, C30G U46G: 0.0361.
Next, C30G G81C: 0.032; G29U U65A: 0.175.
For C30G C75A, the self-cleavage is 0.0583.
Next, C30G G40A: 0.0923.
Next, C30U A87C: 0.755.
Regarding G29U C66U, the self-cleavage is 0.147.
Next, C30A C84G: 0; C30U C66A: 0.684.
For the variant C30A U72C, the self-cleavage was 0.142.
For C30A U72A, the self-cleavage came out at 0.123.
In the case of G29U G50U, the self-cleavage was 0.12.
As for G31A A83U, the self-cleavage was 0.178.
G31A A83C: the self-cleavage came out at 0.0811.
With G31A A83G, the self-cleavage was determined as 0.228.
Turning to G31U A56G, the self-cleavage was 0.386.
As to G31A C61G, the self-cleavage was 0.401.
In the case of C30A C61U, the self-cleavage was found to be 0.601.
As for C30A C61G, the self-cleavage came out at 0.583.
On to C30G U65C, for which the self-cleavage stood at 0.
With C30G U65G, the self-cleavage is 0.0346.
Regarding G29U A45U, the self-cleavage is 0.
With C30A A78G, the self-cleavage was 0.309.
Next, C30A C75A: 0.166; C30A C75G: 0; C30A U47C: 0.314.
Next, G31A G82U: 0.0715; G31A C32U: 0.315; G31A A70G: 0.4.
For C30U A71G, the self-cleavage stood at 0.633.
As for C30G U47A, the self-cleavage was 0.0354.
As for C30G U47C, the self-cleavage was determined as 0.0941.
With C32A U79C, the self-cleavage was 0.0733.
With C32A U79G, the self-cleavage amounted to 0.133.
On to G29U C85U, for which the self-cleavage is 0.086.
Consider G29U C85G, for which the self-cleavage is 0.
For G31C G80C, the self-cleavage came to 0.0615.
